Laboratory results from PMC314469, “Protein Interaction Networks by Proteome Peptide Scanning” (PLoS Biology, 2004).

T1: amphyphisin SH3 (AMPH_HUMAN), P49418
T1 chain: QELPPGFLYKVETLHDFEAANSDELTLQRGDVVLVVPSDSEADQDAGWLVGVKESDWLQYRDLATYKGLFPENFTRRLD


Tests used:
[1] = molecular target: T1, amphyphisin SH3 (AMPH_HUMAN), P49418; experiment: SPOT array
[2] = molecular target: endophilin SH3 (SH3G2_HUMAN), Q99962; experiment: SPOT array

| normalised SPOT signal, Boehringer light units (BLU); mean over the file's lines of this peptide [1] | normalised SPOT signal, Boehringer light units (BLU); mean over the file's lines of this peptide [2] | Binder |
| --- | --- | --- |
| 325 | 192 | DRPIIDRPIRGRGG [Q9Y367 154-167] |
| 149 | 112 | DPSGLPRPQKIPIS [Q9H591 280-293] |
| 75.1 | 1540 | DTYRPKRPTTLNLF [Q9UQF2 154-167] |
| 30.7 | 57.1 | DSPSFSRPSKYSPG [O14905 71-84] |
| 20.2 | 80.5 | DSGQPRRPGQSPLS [O75111 1249-1262] |
| 43.4 | 46.9 | DQIPPNKPPWFDQP [O00302 379-393] |
| 112 | 65.4 | DTALLPRPERRSSL [Q9Y2E3 518-531] |
| 50.3 | 291 | AEGPPKRPGGSSPL [P48634 1665-1678] |
| 78.7 | 101 | DTPPPSRPEKKKAD [P12111 1626-1639] |
| 59.5 | 203 | DPRTPRRPRSARAG [Q9H901 24-37] |
| 32 | 8420 | DPNAPKRPPLAFFL [P23497 765-778] |
| 45 | 238 | DPSPPRRPQHNSSG [Q96LS7 199-212] |
| 39.5 | 3610 | DPNAPKRPPSAFFL [P09429 90-103] |
| 73.4 | 468 | DPPGPPRPPKEPGP [Q9NR59 1285-1299] |
| 108 | 1200 | DPQAPRRPPSSFLL [Q8WW32 89-102] |
| 183 | 948 | DPRRPKRPRTILTT [O60663 192-205] |

| normalised SPOT signal, Boehringer light units (BLU); mean over the file's lines of this peptide [1] | normalised SPOT signal, Boehringer light units (BLU); mean over the file's lines of this peptide [2] | Binder |
| --- | --- | --- |
| 41.4 | 82.6 | DPNAPKRPMSAYML [Q08945 543-556] |
| 24.3 | 60.9 | DTLNIRRPLVKMVY [Q9P0U0 373-386] |
| 20 | 5320 | DPNAPKRPPSGFFL [O15347 88-101] |
| 57.4 | 32.7 | AEILPRRPPTPEAQ [Q9BTK6 128-142] |
| 27.3 | 39.4 | DPNTFKRPQTPPKI [Q9Y4E3 337-350] |
| 45.5 | 47.9 | DPNFPNKPPLTFDI [Q9H314 810-824] |
| 36.5 | 72.7 | DTTSPSRPPGGPII [Q9Y2E5 978-992] |
| 25.9 | 63 | DTKALRRPKSAELH [P07949 469-482] |
| 11.5 | 971 | DSPLPRRPAFSGTS [Q9HBB0 94-107] |
| 40.7 | 1710 | DPNAPKRPLSGFFL [Q9UJ13 78-91] |
| 574 | 7650 | DRPKPPRPPTGRPS [P51512 320-334] |
| 129 | 144 | DRFPLKRPRYEDSD [O94913 808-821] |
| 17.3 | 882 | AEERPRRPSQEQSA [Q9Y4D0 963-976] |
| 20.6 | 33.1 | DPNPPKRPLIFDTN [O14802 1370-1383] |
| 360 | 62.2 | DRWDPTRPPRATDT [O95180 738-751] |
